These results are taken from patent US20030211523A1 (published 2003).

The target in test [1] is VP16 activation domain alone, encoded by the empty prey vector PMVP (UniProt P06492). Kind of test: cell-based or functional assay.
The target in test [2] is VP16 transcription activation domain fused to aa 133-239 of c-Fos, encoded by PMVP_Fos (human) (UniProt P01100). Kind of test: cell-based or functional assay.
Test [3] has as its target T1, JA domain (aa 1-223) of c-Jun fused with GFP, encoded by PMNGFP_JA (human, UniProt P05412 1-223; P42212 1-238 = GFP).
T1 construct: Expressed in HEK293T cells
Kind of test: in vivo binding screening: membrane localization of the GFP fusion in HEK293T cells, fluorescence microscopy.

Test [4] concerns the target T2, JZ domain of c-Jun fused with GFP, encoded by PMNGFP_JZ (human, UniProt P05412 249-331; P42212 1-238 = GFP).
T2 construct: Expressed in HEK293T cells; also called bait in the second screening
The test is described as above.

VP16 activation domain alone, encoded by the empty prey vector PMVP, sequence (P06492 411-456 limits assumed): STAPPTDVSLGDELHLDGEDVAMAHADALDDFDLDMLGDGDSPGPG

Regarding “Gal4 DNA-binding domain fused to the JZ domain (aa 249-331) of c-Jun, encoded by PMBD_JZ (from UniProt P04386 1-147; P05412 249-331)”, the events with GFP 30-fold or more above the background (FACS) (event in 10000) in test [1] was under 1. In test [2], “Gal4 DNA-binding domain alone, encoded by the empty bait vector PMBD (from UniProt P04386 1-147)” came in with an events with GFP 30-fold or more above the background (FACS) (event in 10000) of under 1.

B1: Fyn_Fos peptide: Fyn myristoylation (membrane-localizing) signal fused to c-Fos aa 133-239, expressed from the 3-primer PCR product (other, UniProt P06241 1-10, looked up)
chain: MGCVQCKDKESPEEEEKRRIRRERNKMAAAKCRNRRRELTDTLQAETDQLEDEKSALQTEIANLLKEKEKLEFILAAHRPACKIPDDLGFPEEMSVASLDLTGGLPEVATPESEEAF
modifications: myristoylation signal at the N-terminus (membrane-localizing signal)
notes: domain: myristoylation signal;range 133-239; Expressed in HEK293T cells
Regarding B1, the binding result in test [3] is “no binding”.

B2: Fyn_JA: Fyn membrane-localizing signal fused to the JA domain of c-Jun (other, UniProt P06241 1-10, looked up)
chain: MGCVQCKDKEMTAKMETTFYDDALNASFLPSESGPYGYSNPKILKQSMTLNLADPVGSLKPHLRAKNSDLLTSPDVGLLKLASPELERLIIQSSNGHITTTPTPTQFLCPKNVTDEQEGFAEGFVRALAELHSQNTLPSVTSAAQPVNGAGMVAPAVASVAGGSGSGGFSASLHSEPPVYANLSNFNPGALSSGGGAPSYGAAGLAFPAQPQQQQQPPHHLPQQMPVQHPRLQ
modifications: myristoylation signal at the N-terminus (membrane-localizing signal)
notes: domain: myristoylation signal;range 1-223
On to B2, for which the binding result in test [4] is on record as “no binding”.
